In article PMC4404914, “Adenoviral L4 33K forms ring-like oligomers and stimulates ATPase activity of IVa2: implications in viral genome packaging” (Frontiers in Microbiology, 2015):

B2: 6His-tagged HAdV5 IVa2, purified from E. coli (natural protein)
chain: METRGRRPAALQHQQDQPQAHPGQRAARSAPLHRDPDYADEDPAPVERHDPGPSGRAPTTAVQRKPPQPAKRGDMLDRDAVEQVTELWDRLELLGQTLKSMPTADGLKPLKNFASLQELLSLGGERLLADLVRENMRVRDMLNEVAPLLRDDGSCSSLNYQLHPVIGVIYGPTGCGKSQLLRNLLSSQLISPTPETVFFIAPQVDMIPPSELKAWEMQICEGNYAPGPDGTIIPQSGTLRPRFVKMAYDDLILEHNYDVSDPRNIFAQAAARGPIAIIMDECMENLGGHKGVSKFFHAFPSKLHDKFPKCTGYTVLVVLHNMNPRRDMAGNIANLKIQSKMHLISPRMHPSQLNRFVNTYTKGLPLAISLLLKDIFRHHAQRSCYDWIIYNTTPQHEALQWCYLHPRDGLMPMYLNIQSHLYHVLEKIHRTLNDRDRWSRAYRARKTPK
notes: IVa2 of human adenovirus serotype 5; synthetic gene cassette, codon-optimized for bacteria, in pET28a (pET28-IVa2); the results speak of the full-length IVa2 band; A faster migrating band, perhaps a degradation product of IVa2, was also in the preparation; also called purified IVa2; source: E. coli BL21 (DE3) pLysS, purified (HiTrap NiNTA, HiPrep 16/10 SP-XL cation exchange)

What was measured:
[1] = molecular target: B2; experiment: cell-based or functional assay
[2] = molecular target: the molecule itself; experiment: transmission electron microscopy (negative stain); purified protein on glow-discharged carbon-coated formvar grids, rinsed with 20 mM Tris pH 7.5, 2% uranyl acetate

B1: 6His-tagged HAdV5 L4 33K, purified from E. coli (natural protein)
chain: MAPKKKLQLPPPPTDEEEYWDSQAEEVLDEEEEDMMEDWESLDEEASEVEEVSDETPSPSVAFPSPAPQKSATGSSMATTSAPQAPPALPVRRPNRRWDTTGTRAAHTAPAAAAAAATAAATQKQRRPDSKTLTKPKKSTAAAAAGGGALRLAPNEPVSTRELRNRIFPTLYAIFQQSRGQEQELKIKNRSLRSLTRSCLYHKSEDQLRRTLEDAEALFSKYCALTLKD
ATPase activity of purified IVa2 (inorganic phosphate after 30 min at 37°C) with 33K and HAdV5 Tp-DNA; no significant increase with only IVa2 + 33K, 33K + Tp-DNA or IVa2 + Tp-DNA [1]: 3 fold

B2
binding result [2]: binds
